Publication PMC10069731 (2023)

Biological target: SARS-CoV-2 WT RBD (SARS-CoV-2, UniProt P0DTC2)
Experiment: BLI

B1: rabbit monoclonal antibody (RmAb) 1H1, IgG (antibody, V domains shown)
VH: QSLEESGGDLVKPGASLTLTCTASGFSFSSGYDMCWVRQAPGKGLEWIACIGTGSSGNIYYASWAKGRFTISKTSSTTVTLQMTSLTAADTATYFCARDDADYAGPDYFNLWGPGTLVTVSS
VL: DIVMTQTPASVSEPVGGTVTIKCQASESISNWLAWYQQKPGQPPKLLIYAAFTLASGVPSRFKGSGSGTQFTLTINGVECADAATYYCQQTYSSRDVDNVFGGGTEVVVK
Kd: 0.0898 nM
